Measurements taken from patent US10400249B2, “HPPD variants and methods of use” (priority 2014, dated 2019).

Test system: maize T0 events
Assay: greenhouse spray test of maize T0 events for tolerance to Cmpd. 4
Format: in vivo
Settings: Cmpd. 4 at 100 g AI/ha; for number of maize T0 events in herbicide tolerance class 0 (41%-100% damaged leaf area) / number of maize T0 events in herbicide tolerance class 1 (16%-41% damaged leaf area) / number of maize T0 events in herbicide tolerance class 2 (6%-15% damaged leaf area) / number of maize T0 events in herbicide tolerance class 3 (0%-5% damaged leaf area): six days after application
Source text: Constructing the plant expression cassette for stable expression in the maize plant and maize transformation are well known in the art and in this particular example the methods were described and used from the PCT patent publication WO2014/043435 and WO2008/100353. The polynucleotide sequences encoding the HPPD variants in this application have been stacked with a DNA sequence encoding an EPSPS protein variant to confer tolerance to herbicides, which target the EPSPS. The EPSPS gene was isolated and mutated from Arthrobacter globiformis (WO2008/100353) and joined in-frame to a transit peptide sequence to guide translocation of the translated protein to the chloroplast.
The corresponding HPPD variants were cloned with the same promoter, chloroplast transit peptide, and terminator sequence as described for the EPSPS gene expression cassette. The coding sequences for both genes have been codon optimized for maize expression. For the maize transformation ears are best collected 8-12 days after pollination. Embryos were isolated from the ears, and those embryos 0.8-1.5 mm in size were preferred for use in transformation. Embryos were plated scutellum side-up on a suitable incubation media, and incubated overnight at 25° C. in the dark.
However, it was not necessary per se to incubate the embryos overnight. Embryos are contacted with an Agrobacterium strain containing the appropriate vectors having a nucleotide sequence of the present invention for Ti plasmid mediated transfer for about 5-10 min, and then plated onto co-cultivation media for about 3 days (25° C. in the dark). After co-cultivation, explants were transferred to recovery period media for about five days (at 25° C. in the dark). Explants were incubated in selection media with glyphosate for up to eight weeks, depending on the nature and characteristics of the particular selection utilized. After the selection period, the resulting callus were transferred to embryo maturation media, until the formation of mature somatic embryos is observed. The resulting mature somatic embryos were then placed under low light, and the process of regeneration was initiated as known in the art. The resulting shoots were allowed to root on rooting media, and the resulting plants were transferred to nursery pots and propagated as transgenic plants. Plants were routinely analyzed for the expression and presence of the transgenes using the ELISA protein detection method. Only plants recovering in the selection media and having a detectable HPPD transgene protein expression were used for the herbicide tolerance analysis.
Regenerated T0 events from tissue culture were transplanted into two inch square pots with synthetic soil (Fafard® Mix) and controlled-released fertilizer (Haifa Multicote™; polymer-coated controlled-release fertilizer, NPK Pro 18-6-12+ Micronutrients) and cultivated in the greenhouse (GH) under supplementary high pressure sodium light for 12 days at a maximum of 30° C. during the day and a minimum of 22° C. at night. Fully recovered plants were transferred into five inch square pots filled with synthetic soil and control released fertilizer under the same environmental conditions. After seven days the T0 plants have been sprayed with 2-chloro-3-(methylsulfanyl)-N-(1-methyl-1H-tetrazol-5-yl)-4-(trifluoromethyl)benzamide (Cmpd. 4); at agronomic relevant concentration of 100 g AI/ha (with “g AI/ha” meaning “gram of active ingredient per hectare”) prepared from a WP20 (wettable powder 20%) formulation supplemented with esterified vegetable oil mixture (Hasten™ spray adjuvants, 0.578% v/v) and ammonium sulphate (AMS, 0.97% w/v). The herbicide treatment was conducted in a DeVries Tracker Sprayer system with standard application protocols, which are well known in the art. As a spray control T0 events have been sprayed with the adjuvant mixture lacking the herbicide. […]

| Molecule | share of tested maize events with good to high tolerance, 15% or less bleached leaf area | share of tested maize events with less than 5% or no visual leaf damage | number of maize T0 events in herbicide tolerance class 0 (41%-100% damaged leaf area) | number of maize T0 events in herbicide tolerance class 1 (16%-41% damaged leaf area) | number of maize T0 events in herbicide tolerance class 2 (6%-15% damaged leaf area) | number of maize T0 events in herbicide tolerance class 3 (0%-5% damaged leaf area) |
| --- | --- | --- | --- | --- | --- | --- |
| FLP136: PfHPPD variant P215L, E335P, G336F (protein, HPPD variant - FLP136, PfHPPD variant P215L, E335P, G336F) MADLYENPMGLMGFEFIEFASPTPGTLEPIFEIMGFTKVATHRSKNVHLYRQGEINLILNNEPNSIASYFAAEHGPSVCGMAFRVKDSQKAYNRALELGAQPIHIDTGPMELNLPAIKGIGGAPLYLIDRFGEGSSIYDIDFVYLEGVERNPVGAGLKVIDHLTHNVYRGRMVYWANFYEKLFNFREARYFDIKGEYTGLTSKAMSAPDGMIRILLNEESSKGAGQIEEFLMQFNGEGIQHVAFLTDDLVKTWDALKKIGMRFMTAPPDTYYEMLEGRLPDHGEPVDQLQARGILLDGSSVEGDKRLLLQIFSETLMGPVFFEFIQRKGDDGFGPFNFKALFESIERDQVRRGVLTAD | Approximately 40% | ~15% | 13 | 37 | 21 | 13 |
| FLP202: PfHPPD variant P215L, E335P, G336F, A340E (protein, HPPD variant - FLP202, PfHPPD variant P215L, E335P, G336F, A340E) MADLYENPMGLMGFEFIEFASPTPGTLEPIFEIMGFTKVATHRSKNVHLYRQGEINLILNNEPNSIASYFAAEHGPSVCGMAFRVKDSQKAYNRALELGAQPIHIDTGPMELNLPAIKGIGGAPLYLIDRFGEGSSIYDIDFVYLEGVERNPVGAGLKVIDHLTHNVYRGRMVYWANFYEKLFNFREARYFDIKGEYTGLTSKAMSAPDGMIRILLNEESSKGAGQIEEFLMQFNGEGIQHVAFLTDDLVKTWDALKKIGMRFMTAPPDTYYEMLEGRLPDHGEPVDQLQARGILLDGSSVEGDKRLLLQIFSETLMGPVFFEFIQRKGDDGFGPFNFKELFESIERDQVRRGVLTAD | More than 30% | ~13% | 12 | 49 | 16 | 12 |
